± gives the uncertainty stated by the source.
B1: Transcription elongation factor A N-terminal and central domain-containing protein, residues 30 to 77; numbered along this chain, Q8N8B7 (parent)
chain: LTELETIYVTKEHLQETDVVRAVYRVLKNCPSVALKKKAKCLLSKWKA

Variants of: B1
Assay: abundance fitness (aPCA) (normalised: wild type 0, dead -1); higher = more abundant; growth selection in yeast, the domain comes from the species named
Details: Homo sapiens

Abundance fitness, by site and new letter:
V23: T -0.122 ± 0.11, R -0.426 ± 0.073
A22: K 0.082 ± 0.11, R 0.277 ± 0.066, W 0.256 ± 0.076, S -0.007 ± 0.09, H -0.328 ± 0.15, M -0.053 ± 0.1, V -0.37 ± 0.079, C -0.206 ± 0.095, E -0.328 ± 0.09, I -0.419 ± 0.2, L -0.119 ± 0.074, D -0.209 ± 0.095, Q -0.082 ± 0.11, F -0.308 ± 0.13, N -0.099 ± 0.13, Y -0.074 ± 0.11, G -0.046 ± 0.066, P -0.143 ± 0.096
P31: R 0.188 ± 0.062, K 0.291 ± 0.092, F 0.511 ± 0.092, V 0.337 ± 0.062, A 0.119 ± 0.065, Y -0.021 ± 0.092, G 0.298 ± 0.06, M 0.457 ± 0.08, N -0.016 ± 0.1, Q -0.017 ± 0.096, I 0.371 ± 0.085, S 0.263 ± 0.071, T 0.341 ± 0.077, H -0.349 ± 0.11, E -0.357 ± 0.073, W 0.382 ± 0.075, L 0.355 ± 0.063
C30: H -0.743 ± 0.24, L 0.075 ± 0.086, D -0.442 ± 0.16, M 0.035 ± 0.12, I 0.204 ± 0.15, V 0.062 ± 0.08, A -0.338 ± 0.11, S -0.514 ± 0.087, Q -0.189 ± 0.12, N -0.274 ± 0.14, W 0.119 ± 0.075, G 0.012 ± 0.064, Y -0.632 ± 0.1, E -0.935 ± 0.17, F 0.121 ± 0.14, P -0.244 ± 0.14
S32: Q -0.439 ± 0.32, K -0.155 ± 0.078, L 0.355 ± 0.089, D -0.389 ± 0.27, A 0.103 ± 0.15, R 0.022 ± 0.072, P 0.039 ± 0.1, C 0.367 ± 0.12, F 0.211 ± 0.13, H 0.131 ± 0.24, V 0.289 ± 0.13, N -0.017 ± 0.13, I 0.27 ± 0.13, T -0.022 ± 0.094
L35: F -0.293 ± 0.28, S -0.8 ± 0.37
R21: K -0.246 ± 0.16, D -0.759 ± 0.27, V -0.904 ± 0.15, F -0.914 ± 0.42, G -0.042 ± 0.076, P -0.514 ± 0.15, A -0.457 ± 0.13, Y -0.601 ± 0.28, E -0.647 ± 0.3, N -0.113 ± 0.15, H -0.067 ± 0.16, M -0.333 ± 0.41, C -0.468 ± 0.13, W -0.549 ± 0.14, I -1.03 ± 0.3, T -0.413 ± 0.15, L -0.88 ± 0.12
V19: S -0.481 ± 0.1, Q -0.464 ± 0.21, W -0.01 ± 0.15, M 0.037 ± 0.14, G -0.094 ± 0.082, D -0.72 ± 0.38, R 0.037 ± 0.09, T -0.347 ± 0.12, Y -0.595 ± 0.21, F -0.362 ± 0.18, E -0.618 ± 0.2, P -0.261 ± 0.13, H -0.454 ± 0.18, I -0.133 ± 0.16, K -0.39 ± 0.14, L -0.121 ± 0.092, A -0.022 ± 0.11, N -0.695 ± 0.43
Y24: F 0.172 ± 0.13, H -0.468 ± 0.16, R 0.277 ± 0.066, A 0.019 ± 0.078, K 0.219 ± 0.095, N -0.362 ± 0.15, W 0.406 ± 0.087, I 0.105 ± 0.11, L 0.205 ± 0.076, M 0.315 ± 0.075, Q -0.223 ± 0.11, G -0.345 ± 0.068, P -0.72 ± 0.17, V 0.11 ± 0.07, D -0.217 ± 0.099, C -0.003 ± 0.1
K38: R -0.061 ± 0.077, F -0.193 ± 0.31, E -0.933 ± 0.2, A 0.023 ± 0.097, L -0.024 ± 0.1, P -0.679 ± 0.23, D -0.885 ± 0.35, N 0.201 ± 0.41, H -0.529 ± 0.14, C 0.099 ± 0.17, Q -0.645 ± 0.19, I -0.266 ± 0.16, T -0.11 ± 0.24, G -0.209 ± 0.074
V26: R 0.211 ± 0.079, E -0.836 ± 0.18, S -0.206 ± 0.089, L -0.172 ± 0.088, A 0.154 ± 0.076, T 0.279 ± 0.12, M 0.206 ± 0.11, Q -0.183 ± 0.27, P -0.131 ± 0.14, W 0.447 ± 0.11, F 0.126 ± 0.11, D -0.727 ± 0.21, N -0.152 ± 0.12, G -0.095 ± 0.078, C 0.15 ± 0.12, I -0.105 ± 0.12, Y 0.491 ± 0.17, K -0.149 ± 0.22
V20: S -0.594 ± 0.13, D -0.215 ± 0.15, P -0.19 ± 0.12, Q -0.633 ± 0.23, A 0.015 ± 0.1, T -0.414 ± 0.24, L 0.113 ± 0.079, E -0.561 ± 0.18, H -0.491 ± 0.24, N -0.741 ± 0.39, G -0.109 ± 0.086, W 0.07 ± 0.1, C -0.034 ± 0.11, F 0.071 ± 0.21, Y -0.301 ± 0.14

— the Human Domainome abundance scans (Beltran et al. 2025)
